Experimental findings from patent US20160215065A1 (Genentech, published 2016) are described below.

Data set [1] deals with T1, internally quenched fluorogenic peptide substrate with P1-methylarginine.
T1 sequence: IRRSSYSFKK

The subject of data set [2] is T2, internally quenched fluorogenic peptide substrate with P1-arginine.
T2 sequence: IRRSSYSFKK

Data set [3] has as its target T3, internally quenched fluorogenic peptide substrate with P1-arginine.
T3 chain: IRRSSYSFKK

For data set [4], the target named is T4, internally quenched fluorogenic peptide substrate with P1-methylarginine.
T4 chain: IRRSSYSFKK

In data set [5] the target is human zymogen NSP4 (hZ) (human) (UniProt Q6UWY2). As to the kind of experiment: competition phage ELISA (phage IC50); soluble hZ-NSP4 against plate-coated NSP4.
For data set [6] the target is unchanged. The data set is described as follows: BLI affinity class in summary table.
The target in a further data set is T5, mouse zymogen NSP4 (mZ) (mouse, UniProt Q14B24 36-284).
T5 construct: mature; Expressed in CHO cells; also called mZ-NSP4; mZ (NSP4); not shown: N-terminal FLAG tag cleavable by enteropeptidase (cleavage after Asp-Asp-Asp-Asp-Lys)
T5 sequence (looked up): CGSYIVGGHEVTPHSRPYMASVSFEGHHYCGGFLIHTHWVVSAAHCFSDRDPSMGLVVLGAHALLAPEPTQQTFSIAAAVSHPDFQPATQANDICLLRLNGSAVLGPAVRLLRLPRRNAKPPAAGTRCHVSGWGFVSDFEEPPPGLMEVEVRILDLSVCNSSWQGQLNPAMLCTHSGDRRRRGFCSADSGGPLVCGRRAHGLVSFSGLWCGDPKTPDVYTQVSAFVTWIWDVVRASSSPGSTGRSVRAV
The data set is described as follows: BLI affinity class in summary table.

The target in a further data set is T6, mouse active NSP4 (mA) (mouse, UniProt Q14B24 36-284).
T6 construct: mature; also called mA-NSP4; mA (NSP4)
T6 sequence (looked up): T5 sequence (looked up)
As to the kind of experiment: BLI affinity class in summary table.

For the next data set, the target named is T7, human active NSP4 (hA) (human, UniProt Q6UWY2 34-283).
T7 construct: range 34-283; For crystals partly deglycosylated with Endo F3 (FFR-cmk complex) or fully glycosylated (VLK-cmk complex); also called hA-NSP4; hA (NSP4)
T7 sequence (looked up): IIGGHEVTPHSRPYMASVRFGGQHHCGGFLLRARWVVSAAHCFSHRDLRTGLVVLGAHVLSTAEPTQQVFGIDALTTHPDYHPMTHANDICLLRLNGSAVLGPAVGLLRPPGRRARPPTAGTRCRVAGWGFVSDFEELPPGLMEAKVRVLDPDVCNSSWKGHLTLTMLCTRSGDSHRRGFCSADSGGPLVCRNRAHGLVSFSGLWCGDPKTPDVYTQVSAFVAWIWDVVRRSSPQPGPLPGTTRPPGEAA
The data set is described as follows: BLI affinity class in summary table.

Data set [7] deals with T8, mouse active NSP4 (mA) (mouse), Q14B24.
T8 chain: T5 sequence (looked up)
As to the kind of experiment: BLI affinity class in summary table. Conditions: remark: other sources report otherwise.

For data set [8] the target is unchanged. As to the kind of experiment: competition phage ELISA (phage IC50); soluble mA-NSP4 against plate-coated NSP4. To be noted: remark: other sources report otherwise.

Several values for one entry are separate records, joined by “and”; a condition that tells them apart may be missing. Equal entries are not always repeated. Where two headings read alike, the source gives them in different places. A value given as a limit tells only on which side of the number the result lay.

Take Factor Xa: the “cleavage of fluorogenic peptide with P1-methylarginine” value in data set [1] is listed as “factor Xa, with a canonical S1 pocket could only cleave unmodified P1-Arg substrate”. Moreover, in [2], the “cleavage of fluorogenic peptide with P1-arginine” value was “factor Xa, with a canonical S1 pocket could only cleave unmodified P1-Arg substrate”.

B1: human active NSP4 (hA) (protein)
chain: T7 sequence (looked up)
Consider B1, for which the “kcat/KM of fluorogenic peptide cleavage” value in [3] is given as “WT (BEVS) kcat/KM=1.1×10^4±2.1×10^3 M^-1 s^-1”. The “cleavage of fluorogenic peptide with P1-methylarginine” value in data set [4] is on record as “NSP4 could indeed cleave after methylarginine”.

B2: human wild-type NSP4 produced in CHO cells, activated (protein)
chain: T7 sequence (looked up)
B2: in data set [3], the “kcat/KM of fluorogenic peptide cleavage” value is “WT (CHO) kcat/KM=7.5×10^3 ±1.1×10^3 M^-1s^-1”.

B3: anti-NSP4 antibody 2-4 (antibody, human IgG1, V domains shown)
VH: EVQLVESGGGLVQPGGSLRLSCAASGFTFSDYWISWVRQAPGKGLEWVAGISPNNGDTYYADSVKGRFTISADTSKNTAYLQMNSLRAEDTAVYYCAREDDDERDYAMDYWGQGTLVTVSS
VL: DIQMTQSPSSLSASVGDRVTITCRASQDVSTAVAWYQQKPGKAPKLLIYSASFLYSGVPSRFSGSGSGTDFTLTISSLQPEDFATYYCQQSYTTPPTFGQGTKVEIKR
notes: also called clone 2-4
In turn, B3 registered an IC50 in data set [5] of 2.3 nM. In addition, the Kd (in [6]; with mouse zymogen NSP4 (mZ); with mouse active NSP4 (mA); in the data set with human active NSP4 (hA)) was below 50 nM each time.

B4: anti-NSP4 antibody 2-1 (antibody, human IgG1, V domains shown)
VH: EVQLVESGGGLVQPGGSLRLSCAASGFTFTDYSIHWVRQAPGKGLEWVAEIYPYSGDTYYADSVKGRFTISADTSKNTAYLQMNSLRAEDTAVYYCARDGDGWFDWAMDYWGQGTLVTVSS
VL: B3 VL
notes: also called clone 2-1
Consider B4, for which, in [5], the IC50 came to 7.62 nM. In addition, the dissociation constant (Kd) (in data set [6]; in the data set with mouse zymogen NSP4 (mZ); with mouse active NSP4 (mA); in the data set with human active NSP4 (hA)) was below 50 nM in each case.

B5: anti-NSP4 antibody 5-4 (antibody, V domains shown)
VH: EVQLVESGGGLVQPGGSLRLSCAASGFTFTSYAISWVRQAPGKGLEWVAGISPSNGYTNYADSVKGRFTISADTSKNTAYLQMNSLRAEDTAVYYCARAGRWTHSDIDYWGQGTLVTVSS
VL: B3 VL
In [7], B5 had a Kd below 50 nM. The IC50 in data set [8] was found to be 60.5 nM.

B6: anti-NSP4 antibody 3-2 (antibody, human IgG1, V domains shown)
VH: EVQLVESGGGLVQPGGSLRLSCAASGFTFSDYSISWVRQAPGKGLEWVGEINPAGGATYYADSVKGRFTISADTSKNTAYLQMNSLRAEDTAVYYCARGDFPFWSDAYYVMDYWGQGTLVTVSS
VL: B3 VL
notes: also called Ab 3-2; clone 3-2
In the case of B6, the Kd in the data set with mouse zymogen NSP4 (mZ) and in the data set with mouse active NSP4 (mA) was below 50 nM throughout.

B7: anti-NSP4 antibody 4-4 (antibody, human IgG1, V domains shown)
VH: EVQLVESGGGLVQPGGSLRLSCAASGFTFTSTSIHWVRQAPGKGLEWVAEITPHGGYTNYADSVKGRFTISADTSKNTAYLQMNSLRAEDTAVYYCARGRTKWGWLYGMDYWGQGTLVTVSS
VL: B3 VL
notes: also called clone 4-4
As for B7, the Kd in [6] was > 50 nM and < 1000 nM; with human active NSP4 (hA), below 50 nM.

B8: anti-NSP4 antibody 1-1 (antibody, human IgG1, V domains shown)
VH: EVQLVESGGGLVQPGGSLRLSCAASGFTFSGSWISWVRQAPGKGLEWVGTISPYNGSTYYADSVKGRFTISADTSKNTAYLQMNSLRAEDTAVYYCARVLRPKVYASVMDYWGQGTLVTVSS
VL: B3 VL
B8 registered an IC50 in data set [5] of 155 nM. Further, the Kd in [6] was > 50 nM and < 1000 nM.

B9: anti-NSP4 antibody 5-3 (antibody, V domains shown)
VH: EVQLVESGGGLVQPGGSLRLSCAASGFTFSGNDISWVRQAPGKGLEWVAGISPYGGSTYYADSVKGRFTISADTSKNTAYLQMNSLRAEDTAVYYCARRVSFYSRHAGMDYWGQGTLVTVSS
VL: B3 VL
In the case of B9, in data set [7], the Kd is below 50 nM. In data set [8], the IC50 amounted to 319 nM.

B10: anti-NSP4 antibody 5-1 (antibody, human IgG1, V domains shown)
VH: EVQLVESGGGLVQPGGSLRLSCAASGFTFSGSGIHWVRQAPGKGLEWVAWISPTGGNTYYADSVKGRFTISADTSKNTAYLQMNSLRAEDTAVYYCAKSLFHNVAFDYWGQGTLVTVSS
VL: B3 VL
Regarding B10, the Kd in [7] was below 50 nM. The IC50 in [8] amounted to 9.93 nM.

B11: anti-NSP4 antibody 2-3 (antibody, human IgG1, V domains shown)
VH: EVQLVESGGGLVQPGGSLRLSCAASGFTFTDSDISWVRQAPGKGLEWVAWISPSDGATDYADSVKGRFTISADTSKNTAYLQMNSLRAEDTAVYYCAHEASDDDYAIDYWGQGTLVTVSS
VL: B3 VL
notes: also called clone 2-3
In turn, B11 showed an IC50 in data set [5] of 3.07 nM. The dissociation constant Kd (in data set [6]; in the data set with mouse zymogen NSP4 (mZ); with mouse active NSP4 (mA); with human active NSP4 (hA)) was below 50 nM each time.

B12: anti-NSP4 antibody 2-5 (antibody, human IgG1, V domains shown)
VH: EVQLVESGGGLVQPGGSLRLSCAASGFTFTGYGISWVRQAPGKGLEWVGWIYPASGATYYADSVKGRFTISADTSKNTAYLQMNSLRAEDTAVYYCARHRAFDWYPYYIGSSVMDYWGQGTLVTVSS
VL: B3 VL
notes: also called clone 2-5
For B12, the IC50 in [5] turned out to be 22 nM. The Kd (in data set [6]; in the data set with mouse zymogen NSP4 (mZ)) was below 50 nM throughout.

B13: anti-NSP4 antibody 2-2 (antibody, human IgG1, V domains shown)
VH: EVQLVESGGGLVQPGGSLRLSCAASGFTFSSTAISWVRQAPGKGLEWVGEIYPSDGYTDYADSVKGRFTISADTSKNTAYLQMNSLRAEDTAVYYCARVKWAVSSLGVMDYWGQGTLVTVSS
VL: B3 VL
notes: also called clone 2-2
Molecule B13 displayed an IC50 in data set [5] of 10.4 nM. Also, the Kd (in data set [6]; with mouse zymogen NSP4 (mZ)) was below 50 nM in each case.

B14: anti-NSP4 antibody 1-2 (antibody, human IgG1, V domains shown)
VH: EVQLVESGGGLVQPGGSLRLSCAASGFTFSGYSIHWVRQAPGKGLEWVAGISPTNGYTDYADSVKGRFTISADTSKNTAYLQMNSLRAEDTAVYYCARLVFYRGVMDYWGQGTLVTVSS
VL: B3 VL
As for B14, the IC50 in [5] amounted to 22.1 nM. The same molecule registered a Kd in [6] below 50 nM.

B15: anti-NSP4 antibody 4-2 (antibody, human IgG1, V domains shown)
VH: EVQLVESGGGLVQPGGSLRLSCAASGFTFSGSDISWVRQAPGKGLEWVGEIYPSNGDTYYADSVKGRFTISADTSKNTAYLQMNSLRAEDTAVYYCARSVRPSWWAMDYWGQGTLVTVSS
VL: B3 VL
notes: also called clone 4-2
In the case of B15, the Kd in data set [6] was > 50 nM and < 1000 nM; with human active NSP4 (hA), below 50 nM.

B16: anti-NSP4 antibody 1-5 (antibody, human IgG1, V domains shown)
VH: EVQLVESGGGLVQPGGSLRLSCAASGFTFTNNSISWVRQAPGKGLEWVGAISPNNGSTYYADSVKGRFTISADTSKNTAYLQMNSLRAEDTAVYYCARNAWHYSWVGVMDYWGQGTLVTVSS
VL: B3 VL
In the case of B16, in data set [5], the IC50 is 114 nM. In data set [6], the Kd was > 50 nM and < 1000 nM.

B17: anti-NSP4 antibody 1-3 (antibody, human IgG1, V domains shown)
VH: EVQLVESGGGLVQPGGSLRLSCAASGFTFSDNWISWVRQAPGKGLEWVGYIYPASGYTDYADSVKGRFTISADTSKNTAYLQMNSLRAEDTAVYYCASDSPHAYWYAMDYWGQGTLVTVSS
VL: B3 VL
In [5], B17 returned an IC50 of 52 nM. The Kd in data set [6] was > 50 nM and < 1000 nM.

B18: anti-NSP4 antibody 3-5 (antibody, human IgG1, V domains shown)
VH: EVQLVESGGGLVQPGGSLRLSCAASGFTFSDNDISWVRQAPGKGLEWVGSISPDNGDTNYADSVKGRFTISADTSKNTAYLQMNSLRAEDTAVYYCARDDVPAVFTSAMDYWGQGTLVTVSS
VL: B3 VL
notes: also called Ab 3-5; Ab35
Regarding B18, the Kd (in data set [6]; with mouse zymogen NSP4 (mZ); with mouse active NSP4 (mA); in the data set with human active NSP4 (hA)) was below 50 nM throughout.
